# Laboratory results published in patent US20250352615A1, “COMPOSITIONS AND METHODS FOR THE MODULATION OF PIEZO1 AND TRPV4” (Duke University, priority 2021, published 2025).
# Tests used:
# human PSCs = experiment: Human PSC activation and fibrogenic response (fat droplets, cell shape, ECM mRNA and immunostaining); format: cell-based; details: GsMTx4 5 μM, 12 or 25 dyne/cm^2 for 10 minutes
# Procedure: (§1) Mouse and human PSCs were isolated using collagenase digestion. Modified Krebs Henseleit Buffer (KHB) solution (100 mL) was prepared as previously described by Romac et al., Nat. Commun. 9(1):1715 (2018). Pancreatic tissue was digested with 2 mg of collagenase NB 8 (SERVA, catalog 17456) dissolved in 10 mL of modified KHB solution containing 1 mg soybean trypsin inhibitor (SBTI 1-S; Millipore Sigma, catalog T9003) and 20 mg BSA (Thermo Fisher Scientific; BP1600-100). Digestion solution (5 mL) was used to inflate the pancreas. Pancreas with 5 mL of digestion solution was incubated in a shaking water bath for 10 minutes at 37° C. The solution was then discarded. The pancreas tissue was cut into small pieces and digested with fresh 5 mL digestion buffer. Tissue was incubated in a shaking water bath for 40 minutes at 37° C. The cells were then separated from tissue by pipetting up-down with a 10 mL pipette and passed sequentially through a 70 μm and a 40 μm cell strainer. The filtrate was centrifuged at 150×g for 3 minutes at room temperature. The cells were washed with 10 mL Leibovitz's media (Thermo Fisher Scientific, catalog 11415-064), passed through a 20 μm filter, and centrifuged at 80×g for 3 minutes at room temperature. The supernate was removed, and isolated stellate cells were plated on a thin-layered Matrigel-coated glass bottom culture plate (MatTek, P35G-0-14-C). Before plating the cells, Matrigel solution (Corning, catalog 354234) at a ratio of 1.5:100 DMEM/F12 (Thermo Fisher Scientific, catalog 11330-032) was poured onto the culture plate and incubated for 2 hr at 37° C. to form a thin layer of Matrigel coating. Matrigel mixture was removed, and the plate was washed with PBS before cells were plated. Cell culture media, DMEM/F12 with 5% FBS was used for mouse stellate cells. Fresh, human pancreatic tissue was digested with collagenase as described above with modifications. Collagenase (2.5 mg) in 10 mL of modified KHB solution was used for digestion. The digested tissues were filtered through a 100 μm cell strainer. The cells were cultured with DMEM/F12 with 10% FBS in a Matrigel-coated plate. After 24 hr, the cell media was replaced with fresh media to remove unattached and dead cells. After 2 days, cells were immunostained for GFAP and used for experiments. Perinuclear fat droplets were stained with BODIPY 493/503 (4,4-Difluoro-1,3,5,7,8-Pentamethyl-4-Bora-3a,4a-Diaza-s-Indacene; Invitrogen, catalog D3922) to confirm stellate cell quiescence. The cell viability following Yoda1 treatment was analyzed using the Live/Dead cell imaging kit (Thermo Fisher Scientific, catalog R37601). RNAs were isolated using the RiboPure Kit (Invitrogen, catalog AM1924) according to manufacturer's instructions.
# (§2) Fluid shear stress and mechanical pushing applied to stellate cells were achieved as previously described by Wang et al., J. Clin. Invest. 126(12): 4527-4536 (2016). Parallel-plate fluid flow chambers (μ-Slide I 0.4 Luer, or μ-Slide I 0.2 Luer from Ibidi) were used for fluid shear stress experiments. The fluid shear stress (T) was calculated using the formula: τ=η×[…] φ for μ-Slide I 0.4 Luer and τ=η×330.4 φ for μ-Slide I 0.2 Luer, where r represents viscosity of the medium and φ represents flow rate (according to the manufacturer's instructions, Ibidi). Mechanical pushing was achieved by applying a blunt borosilicate glass pipette once to the cell membrane with a deflection of 2-3 μm for 1 second using a micromanipulator (World Precision Instruments).
# Mouse and human PSCs were washed with PBS (pH 7.4) and fixed with 4% paraformaldehyde for 10 minutes at room temperature. The fixed cells were treated with 0.1% Triton X-100. […]
# Piezo1 [1] = molecular target: T1, Piezo1 (Mus musculus, UniProt E2JF22); experiment: Calcium imaging of Piezo1-mediated [Ca2+]i in mouse PSCs; format: cell-based; details: GsMTx4 5 μM
# T1 construct: endogenous in cells; host or cells: freshly isolated mouse pancreatic acini (WT = Piezo1 fl/fl on a C57BL/6J background)
# T1 sequence (E2JF22 whole entry): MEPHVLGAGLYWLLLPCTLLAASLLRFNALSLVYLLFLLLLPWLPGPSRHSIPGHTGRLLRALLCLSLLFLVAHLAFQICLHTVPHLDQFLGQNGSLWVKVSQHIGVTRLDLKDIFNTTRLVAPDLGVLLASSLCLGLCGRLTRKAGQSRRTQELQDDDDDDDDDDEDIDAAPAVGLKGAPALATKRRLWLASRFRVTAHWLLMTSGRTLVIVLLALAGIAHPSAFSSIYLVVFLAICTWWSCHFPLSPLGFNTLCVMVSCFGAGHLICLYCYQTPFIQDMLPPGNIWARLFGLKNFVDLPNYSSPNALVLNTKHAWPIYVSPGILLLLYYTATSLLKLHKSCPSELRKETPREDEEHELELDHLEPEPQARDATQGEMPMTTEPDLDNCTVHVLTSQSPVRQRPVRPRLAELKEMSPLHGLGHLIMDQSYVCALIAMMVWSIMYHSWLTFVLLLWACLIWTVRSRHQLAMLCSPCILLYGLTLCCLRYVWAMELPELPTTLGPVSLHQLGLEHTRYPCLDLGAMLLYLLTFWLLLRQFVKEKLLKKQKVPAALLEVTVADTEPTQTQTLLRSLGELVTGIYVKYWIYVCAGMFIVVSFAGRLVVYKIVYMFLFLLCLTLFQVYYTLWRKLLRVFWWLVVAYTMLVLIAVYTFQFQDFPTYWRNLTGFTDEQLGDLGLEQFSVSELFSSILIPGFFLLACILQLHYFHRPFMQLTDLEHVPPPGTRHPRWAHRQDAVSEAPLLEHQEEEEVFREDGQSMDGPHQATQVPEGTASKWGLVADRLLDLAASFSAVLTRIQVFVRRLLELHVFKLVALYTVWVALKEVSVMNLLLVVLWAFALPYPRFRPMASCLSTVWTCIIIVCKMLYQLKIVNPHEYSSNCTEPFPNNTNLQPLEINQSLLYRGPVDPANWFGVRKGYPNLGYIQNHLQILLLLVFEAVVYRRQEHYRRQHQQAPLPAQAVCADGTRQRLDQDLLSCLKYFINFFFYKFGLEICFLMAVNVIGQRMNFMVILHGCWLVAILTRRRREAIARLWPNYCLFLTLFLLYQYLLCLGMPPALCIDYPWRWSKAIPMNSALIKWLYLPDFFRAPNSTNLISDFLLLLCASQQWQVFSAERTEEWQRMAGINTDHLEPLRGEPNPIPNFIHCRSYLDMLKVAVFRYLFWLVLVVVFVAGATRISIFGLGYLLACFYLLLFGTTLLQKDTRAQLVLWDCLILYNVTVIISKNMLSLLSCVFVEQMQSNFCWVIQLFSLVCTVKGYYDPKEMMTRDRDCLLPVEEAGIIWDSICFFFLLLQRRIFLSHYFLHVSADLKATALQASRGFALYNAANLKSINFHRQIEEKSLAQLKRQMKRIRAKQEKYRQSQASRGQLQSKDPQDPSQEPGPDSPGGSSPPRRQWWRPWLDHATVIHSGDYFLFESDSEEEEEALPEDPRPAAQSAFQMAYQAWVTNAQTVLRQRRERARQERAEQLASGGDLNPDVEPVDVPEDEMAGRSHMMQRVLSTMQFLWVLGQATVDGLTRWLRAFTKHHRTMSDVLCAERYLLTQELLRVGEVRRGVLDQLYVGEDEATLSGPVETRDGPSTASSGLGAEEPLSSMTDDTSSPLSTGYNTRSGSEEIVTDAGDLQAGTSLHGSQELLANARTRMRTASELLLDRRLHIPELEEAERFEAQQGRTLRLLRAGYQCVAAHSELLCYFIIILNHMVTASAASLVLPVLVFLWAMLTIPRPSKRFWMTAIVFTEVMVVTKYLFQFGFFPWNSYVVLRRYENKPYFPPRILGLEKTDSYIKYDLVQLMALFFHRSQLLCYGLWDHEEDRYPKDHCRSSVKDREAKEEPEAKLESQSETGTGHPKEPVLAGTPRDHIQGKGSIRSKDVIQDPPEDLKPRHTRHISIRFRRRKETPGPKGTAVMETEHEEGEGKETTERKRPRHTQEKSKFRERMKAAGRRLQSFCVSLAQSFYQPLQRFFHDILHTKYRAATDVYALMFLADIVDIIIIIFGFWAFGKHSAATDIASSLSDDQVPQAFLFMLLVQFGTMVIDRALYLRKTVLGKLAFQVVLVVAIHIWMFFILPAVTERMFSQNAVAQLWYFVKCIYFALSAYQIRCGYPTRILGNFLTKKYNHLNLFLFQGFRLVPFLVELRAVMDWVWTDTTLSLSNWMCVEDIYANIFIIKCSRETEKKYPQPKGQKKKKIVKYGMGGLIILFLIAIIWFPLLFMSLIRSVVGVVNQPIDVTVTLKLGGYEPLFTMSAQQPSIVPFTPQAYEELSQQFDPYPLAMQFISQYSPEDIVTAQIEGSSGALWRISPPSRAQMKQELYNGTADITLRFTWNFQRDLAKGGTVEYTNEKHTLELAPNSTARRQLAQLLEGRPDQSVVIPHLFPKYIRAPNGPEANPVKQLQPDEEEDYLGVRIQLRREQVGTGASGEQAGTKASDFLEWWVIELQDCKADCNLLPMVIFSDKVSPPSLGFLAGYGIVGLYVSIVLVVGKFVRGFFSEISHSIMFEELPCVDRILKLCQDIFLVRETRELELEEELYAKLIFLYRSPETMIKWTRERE
# Procedure: as §1, §2
# Calcium 6-QF (Molecular Devices) dye was used for live-cell calcium imaging as described by Romac et al., Nat. Commun. 9(1):1715 (2018). Cells were imaged in HBSS buffer with 2 mM Ca^2+. Faintly and highly fluorescent loaded cells were excluded from analysis. […]
# Piezo1 [2] = molecular target: T1, Piezo1; details: pancreatic acini; recently reported; cited from earlier work
# pancreatic acini [3] = experiment: Trypsinogen activation in pancreatic acini (BZiPAR); format: cell-based, mouse; details: GsMTx4 5 μM
# Procedure: To visualize Piezo1-induced trypsinogen activation, acini were loaded with active trypsin enzyme substrate BZiPAR (10 μM). Na-HEPES buffer with 2 mM Ca^2+ was used during imaging. A Zeiss Axio observer Z1 with a high-sensitivity EMCCD camera with a ×40/0.75 EC-Plan-NeoFluar DIC objective was used to capture the Z-stack images with stack thickness of 3 μm at an interval of 12 seconds. The BZiPAR fluorescent wavelength Ex/Em was 498/521 nm. BZiPAR was excited at 470-510 nm and emission collected at 495-550 nm. The captured images were analyzed with MetaMorph software (Molecular Devices).
# pancreatic acini [4] = experiment: Mitochondrial depolarization in pancreatic acini (TMRE); format: cell-based, mouse; details: GsMTx4 5 μM; Yoda1 50 μM; WT cells
# Procedure: Live-cell mitochondrial depolarization was analyzed using the mitochondrial labeling dye, TMRE. Isolated acini were plated on a thin-layered, Matrigel-coated, glass-bottom culture plate with DMEM/F12 and 10% FBS media and placed in a CO2 incubator for 1 hr at 37° C. After 1 hr, the acini were incubated with TMRE (200 nM) in the bath buffer containing 140 mM NaCl, 4.7 mM KCl, 2.0 CaCl2, 1 mM MgCl2, 10 mM HEPES, and 10 mM glucose (pH adjusted to 7.4 with NaOH) for 30 minutes. The TMRE dye was washed and replaced with fresh bath buffer. The images were captured with a Zeiss Axio observer Z1 microscope with MetaMorph software (Molecular Devices) at intervals of 600 ms. TMRE was excited at 540-600 nm and emission collected at 585-675 nm. Carbonyl cyanide 4-(trifluoromethoxy) phenylhydrazone (FCCP), which uncouples the oxidative phosphorylation process and depolarizes mitochondria, was used as a positive control. A maximum of 2 mitochondrial puncta were taken per acinar cell.
# Piezo1 [5] = molecular target: T2, Piezo1 (Homo sapiens, UniProt Q92508); experiment: Calcium imaging of Piezo1-mediated [Ca2+]i in human PSCs; format: cell-based; details: GsMTx4 5 μM, human PSCs
# T2 construct: Fresh, human pancreatic tissue was digested with collagenase as described above with modifications; endogenous in cells; host or cells: primary human pancreatic stellate cells from fresh human pancreatic tissue
# T2 sequence (Q92508 whole entry): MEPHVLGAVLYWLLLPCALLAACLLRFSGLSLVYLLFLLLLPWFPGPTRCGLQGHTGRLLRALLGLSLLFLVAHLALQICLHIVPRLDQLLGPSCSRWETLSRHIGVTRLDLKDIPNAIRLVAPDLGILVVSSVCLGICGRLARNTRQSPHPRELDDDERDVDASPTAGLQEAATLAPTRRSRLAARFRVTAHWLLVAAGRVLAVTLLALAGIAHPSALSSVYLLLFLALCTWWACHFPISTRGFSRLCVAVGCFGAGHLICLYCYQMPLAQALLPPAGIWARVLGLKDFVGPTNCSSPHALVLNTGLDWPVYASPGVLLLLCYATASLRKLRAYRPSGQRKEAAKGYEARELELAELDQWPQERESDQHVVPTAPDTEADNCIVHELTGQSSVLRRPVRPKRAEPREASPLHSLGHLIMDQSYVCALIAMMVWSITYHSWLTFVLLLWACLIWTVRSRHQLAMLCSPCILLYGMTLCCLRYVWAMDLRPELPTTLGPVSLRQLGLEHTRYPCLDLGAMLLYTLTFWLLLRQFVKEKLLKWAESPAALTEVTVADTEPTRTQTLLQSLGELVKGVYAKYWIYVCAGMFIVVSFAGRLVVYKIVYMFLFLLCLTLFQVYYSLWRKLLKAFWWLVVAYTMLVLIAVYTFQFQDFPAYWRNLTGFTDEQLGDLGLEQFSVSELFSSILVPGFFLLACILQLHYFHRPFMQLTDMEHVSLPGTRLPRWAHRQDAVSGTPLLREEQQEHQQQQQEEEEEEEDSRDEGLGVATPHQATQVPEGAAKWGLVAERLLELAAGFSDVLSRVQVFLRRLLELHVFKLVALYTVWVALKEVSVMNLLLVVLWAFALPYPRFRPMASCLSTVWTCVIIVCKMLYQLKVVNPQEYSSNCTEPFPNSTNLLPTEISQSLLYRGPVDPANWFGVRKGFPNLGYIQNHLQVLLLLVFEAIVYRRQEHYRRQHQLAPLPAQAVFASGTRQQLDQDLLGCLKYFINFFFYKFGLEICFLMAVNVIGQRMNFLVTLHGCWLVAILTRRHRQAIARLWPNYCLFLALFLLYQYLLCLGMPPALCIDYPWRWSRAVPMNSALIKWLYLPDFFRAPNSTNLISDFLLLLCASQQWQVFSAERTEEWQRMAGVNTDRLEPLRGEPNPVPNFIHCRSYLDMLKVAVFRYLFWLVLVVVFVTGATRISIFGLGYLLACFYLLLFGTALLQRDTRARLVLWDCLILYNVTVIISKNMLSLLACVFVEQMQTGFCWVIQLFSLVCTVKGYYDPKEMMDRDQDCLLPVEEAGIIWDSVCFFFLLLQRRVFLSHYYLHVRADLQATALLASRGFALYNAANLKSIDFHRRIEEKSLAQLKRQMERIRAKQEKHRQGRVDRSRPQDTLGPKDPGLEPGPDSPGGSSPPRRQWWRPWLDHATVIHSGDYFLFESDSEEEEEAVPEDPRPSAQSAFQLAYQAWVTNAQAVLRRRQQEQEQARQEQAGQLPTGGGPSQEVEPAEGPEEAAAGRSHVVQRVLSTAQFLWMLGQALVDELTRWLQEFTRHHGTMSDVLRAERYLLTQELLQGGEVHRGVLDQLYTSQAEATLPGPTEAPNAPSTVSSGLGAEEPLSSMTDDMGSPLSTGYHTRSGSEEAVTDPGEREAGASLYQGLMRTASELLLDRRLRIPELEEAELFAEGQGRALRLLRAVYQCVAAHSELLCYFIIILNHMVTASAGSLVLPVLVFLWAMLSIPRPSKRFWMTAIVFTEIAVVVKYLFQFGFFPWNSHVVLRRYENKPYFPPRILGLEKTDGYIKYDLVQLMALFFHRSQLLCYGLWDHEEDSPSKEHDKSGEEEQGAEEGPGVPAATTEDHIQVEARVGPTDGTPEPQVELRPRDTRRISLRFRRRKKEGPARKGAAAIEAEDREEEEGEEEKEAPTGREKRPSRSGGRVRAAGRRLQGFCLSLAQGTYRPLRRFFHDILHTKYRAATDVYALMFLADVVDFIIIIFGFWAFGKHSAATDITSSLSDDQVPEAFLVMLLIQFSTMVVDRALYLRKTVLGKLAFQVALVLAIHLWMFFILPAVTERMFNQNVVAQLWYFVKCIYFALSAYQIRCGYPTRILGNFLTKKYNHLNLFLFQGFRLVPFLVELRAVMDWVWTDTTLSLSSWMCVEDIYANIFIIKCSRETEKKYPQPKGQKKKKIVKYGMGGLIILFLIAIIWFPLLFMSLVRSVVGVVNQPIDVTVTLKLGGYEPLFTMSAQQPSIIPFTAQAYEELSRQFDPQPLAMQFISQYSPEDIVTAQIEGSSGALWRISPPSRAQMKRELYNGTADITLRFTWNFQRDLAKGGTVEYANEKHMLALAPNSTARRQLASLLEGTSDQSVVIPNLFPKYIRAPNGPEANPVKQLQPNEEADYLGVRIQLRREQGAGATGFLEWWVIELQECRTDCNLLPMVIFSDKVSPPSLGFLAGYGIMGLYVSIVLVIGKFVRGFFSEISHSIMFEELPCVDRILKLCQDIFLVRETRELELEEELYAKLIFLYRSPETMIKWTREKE
# Procedure: Mouse and human PSCs were isolated using collagenase digestion. Modified Krebs Henseleit Buffer (KHB) solution (100 mL) was prepared as previously described by Romac et al., Nat. Commun. 9(1):1715 (2018). Pancreatic tissue was digested with 2 mg of collagenase NB 8 (SERVA, catalog 17456) dissolved in 10 mL of modified KHB solution containing 1 mg soybean trypsin inhibitor (SBTI 1-S; Millipore Sigma, catalog T9003) and 20 mg BSA (Thermo Fisher Scientific; BP1600-100). Digestion solution (5 mL) was used to inflate the pancreas. Pancreas with 5 mL of digestion solution was incubated in a shaking water bath for 10 minutes at 37° C. The solution was then discarded. The pancreas tissue was cut into small pieces and digested with fresh 5 mL digestion buffer. Tissue was incubated in a shaking water bath for 40 minutes at 37° C. The cells were then separated from tissue by pipetting up-down with a 10 mL pipette and passed sequentially through a 70 μm and a 40 μm cell strainer. The filtrate was centrifuged at 150×g for 3 minutes at room temperature. The cells were washed with 10 mL Leibovitz's media (Thermo Fisher Scientific, catalog 11415-064), passed through a 20 μm filter, and centrifuged at 80×g for 3 minutes at room temperature. The supernate was removed, and isolated stellate cells were plated on a thin-layered Matrigel-coated glass bottom culture plate (MatTek, P35G-0-14-C). […] The cell viability following Yoda1 treatment was analyzed using the Live/Dead cell imaging kit (Thermo Fisher Scientific, catalog R37601). […]
# Fluid shear stress and mechanical pushing applied to stellate cells were achieved as previously described by Wang et al., J. Clin. Invest. […] The fluid shear stress (T) was calculated using the formula: τ=η×[…] φ for μ-Slide I 0.4 Luer and τ=η×330.4 φ for μ-Slide I 0.2 Luer, where r represents viscosity of the medium and φ represents flow rate (according to the manufacturer's instructions, Ibidi). […]
# Piezo1 [6] = molecular target: T1, Piezo1; experiment: Mechanical pushing-induced [Ca2+]i in pancreatic acini; format: cell-based; details: prior treatment with GsMTx4; blunt pipette 5 μm for 1 second
# Procedure: A borosilicate glass pipette (Sutter Instrument) was pulled using a pipette puller P-87 (Sutter Instruments) and made blunt with an MF-900 Microforge (Narishige). Acini were pushed once with a 2- to 3-μm tip blunt pipette to 5 μm for 1 second using a micromanipulator (World Precision Instruments).
# Calcium imaging in pancreatic acini was performed as previously described. The chemicals used in calcium imaging experiments included the following: Yoda1 (Tocris; 5586), GsMTx4 (Abcam; ab141871), 5′,6′-EET (Santa Cruz Biotechnology; sc-221066), AA (Millipore Sigma; A3611), HC067047 (Tocris; 4100), GSK1016790A (Millipore Sigma; G0798), RN1734 (Tocris; 3746), AACOCF3 (Tocris; 1462), YM26734 (Tocris; 2522), GF109203X (Tocris; 0741), and CCK8 (Sigma-Aldrich).
substance,measurement,setting,value
"GsMTx4 (GCLEFWWKCNPNDDKCCRPKLKCSKLFKLCNFSF; HELM PEPTIDE1{G.C.L.E.F.W.W.K.C.N.P.N.D.D.K.C.C.R.P.K.L.K.C.S.K.L.F.K.L.C.N.F.S.F.[am]}$PEPTIDE1,PEPTIDE1,16:R3-30:R3|PEPTIDE1,PEPTIDE1,2:R3-17:R3|PEPTIDE1,PEPTIDE1,9:R3-23:R3$$$V2.0; N-terminus assumed; SMILES CC(C)C[C@@H]1NC(=O)[C@@H](NC(=O)CN)CSSC[C@@H]2NC(=O)[C@@H]3CSSC[C@@H](C(=O)N[C@@H](CC(N)=O)C(=O)N[C@@H](Cc4ccccc4)C(=O)N[C@@H](CO)C(=O)N[C@@H](Cc4ccccc4)C(N)=O)NC(=O)[C@H](CC(C)C)NC(=O)[C@H](CCCCN)NC(=O)[C@H](Cc4ccccc4)NC(=O)[C@H](CC(C)C)NC(=O)[C@H](CCCCN)NC(=O)[C@H](CO)NC(=O)[C@H](CSSC[C@H](NC(=O)[C@H](CCCCN)NC(=O)[C@H](Cc4c[nH]c5ccccc45)NC(=O)[C@H](Cc4c[nH]c5ccccc45)NC(=O)[C@H](Cc4ccccc4)NC(=O)[C@H](CCC(=O)O)NC1=O)C(=O)N[C@@H](CC(N)=O)C(=O)N1CCC[C@H]1C(=O)N[C@@H](CC(N)=O)C(=O)N[C@@H](CC(=O)O)C(=O)N[C@@H](CC(=O)O)C(=O)N[C@@H](CCCCN)C(=O)N3)NC(=O)[C@H](CCCCN)NC(=O)[C@H](CC(C)C)NC(=O)[C@H](CCCCN)NC(=O)[C@@H]1CCCN1C(=O)[C@H](CCCNC(=N)N)NC2=O; UniProt Q7YT39 47-80, looked up)","effect on shear stress-mediated pathological changes (fat droplet loss, fibronectin, collagen type I)",human PSCs,attenuated the shear stress-mediated pathological changes
same,effect on Yoda1-induced calcium rise,Piezo1 [1]; mouse PSCs,blocked the calcium rise produced by Yoda1
same,effect on shear stress-induced transient [Ca2+]i elevation in TRPV4-null PSCs,Piezo1 [1]; 12 dyne/cm^2 for 1 minute,blocked the effects of high shear stress (12 dyne/cm^2 for 1 minute) on the transient [Ca^2+]i elevation
same,effect on Yoda1-mediated [Ca2+]i rise,Piezo1 [2],inhibits the Yoda1-mediated [Ca^2+]i rise
same,effect on Yoda1-induced trypsin activation,pancreatic acini [3],blocked the Yoda1-induced trypsin activation
same,effect on Yoda1-induced mitochondrial depolarization,pancreatic acini [4],blocked the Yoda1-induced mitochondrial depolarization
same,effect on Yoda1 (25 μM)-mediated [Ca2+]i rise,Piezo1 [5],sensitive to GsMTx4 blockade
same,effect on fluid shear stress-induced sustained [Ca2+]i increase,Piezo1 [5]; 12 dyne/cm^2 for 1 minute,blocked
same,effect on mechanical pushing-induced transient [Ca2+]i rise,Piezo1 [6],completely blocked
